Experimental data from the DeepSol protein solubility set.

Test: soluble on expression in E. coli; label from the status in PepcDB or PDB records

Sequence	soluble on expression in E. coli
MLPETDLRRVAAAAAAMHRVAEIRRTRVSGRMDNHERRVGTEWVVTLQGADFPVTIAADHDGSTVSFDDGSSMRVTSDWTPLEHHHHHH	not soluble
MKRLMFIGPSQCGKTSLTQSLRGEALHYKKTQAIEWSPMAIDTPGEYLENRCLYSALLTSACEADVIALVLNADAQWSPFSPGFTAPMNRPTIGLVTKADLAEPQRISLVAEWLTQAGAQQIFITSALNNSGLDAVLDFLNSKEPLCLTKLEHHHHHH	soluble
MKITPLDIQQQQFKGKMLGGIDPEDVDSFLQLVAQEMEGLIRENTDLREQCRKAAADAEQTARQERELREAMLAAQKITEEMKANAQKEASLIVSEAEVKAEKILVDAERRLGQLNEQLQDLRRQKLQFESAFKALLDTHYKMISLEDA	not soluble
DYKDDDDKDLKCTTNNMRVWDCTWPAPLGVSPGTVKDICIKDRFHSCHPLETTNVKIPALSPGDHEVTINYLNGFQSKFTLNEKDVSLIPETPEILDLSADFFTSSLLLKWNDRGSALPHPSNATWEIKVLQNPRTEPVALVLLNTMLSGKDTVQHWNWTSDLPLQCATHSVSIRWHIDSPHFSGYKEWSDWSPLKNISWIRNTETNVFPQDKVVLAGSNMTICCMSPTKVLSGQIGNTLRPLIHLYGQTVAIHILNIPVSENSGTNIIFITDDDVYGTVVFAGYPPDVPQKLSCETHDLKEIICSWNPGRITGLVGPRNTEYTLFESISGKSAVFHRIEGLTNETYRLGVQMHPGQEIHNFTLTGRNPLGQAQSAVVINVTERVAPHDPTSLKVKDINSTVVTFSWYLPGNFTKINLLCQIEICKANSKKEVRNATIRGAEDSTYHVAVDKLNPYTAYTFRVRCSSKTFWKWSRWSDEKRHLTTEAT	soluble
MSLENWRFIEANSDYMVSDHGRILSFKGKSKLIISSSITAKGYEYVAIRQKGIYVGYSVHRLVATAFIPNPKRLPQVNHLDGNKLNNHVANLEWCDAYDNVMHAIRTGLRPSSPALSPVPCATTDEAGNILQAYPSMNALVKGEQMNPKQRNWLVLHLLHPERLKQSAMKKKSRAERSGSEECFLIAPEIPVLTVKADSIGEFEAGNPLGIGKSSNSVGEFEAGNPLGIGKSSNSVEEFEAGNPLGIGKSSNSVGEFKAGNVCVQPVSFSFVSSPFPLISLFAPIHHSVTQHYYRRLSPEESAIFGFNTYILPRERGQRKEFLQEGHHHHHH	not soluble
MSLKLLVLIDGSKWSQKAALHAFSIAKRKNAKVILFSVLDRREAKALAFHLSMRSDSLGKIKEFEETIWRETKKSVKEVITTLLELGRREGINCSFKIVEGSAKEEIIKEANSGKYSMVIMGAYGRSGKTRIGSLLEEVVGQIRIPVMIVREGHHHHHH	soluble
MMIMNNFDEKKLIQEFSKIQSELSPRIKLENNFQIEEIQFIAGVDLAYWNVNKTKYGTCCIVIIDYGTKEVVEKVYSYGEIPIPYIPGFLAFRELPLIIEAVKKLTKQPDIYFFDGNGYLHYRHMGIATHASFLLNKPTIGVAKSYLKIRDVDFIMPENLKGSYTDIVINNEVYGRTLRTTKNVKPIFVSCGNWIDLDTSTEIVMNCINNESRLPIPVRLADLETHKMRKKLMEGLEHHHHHH	not soluble
MLNKVFIIGRLTGDPVITYLPSGTPVVEFTLAYNRRYKNQNGEFQEESHFFDVKAYGKMAEDWATRFSKGYLVLVEGRLSQEKWEKEGKKFSKVRIIAENVRLINRPKGAELQAEEEEEVPPIEEEIEKLGKEEEKPFTDEEDEIPF	soluble
MVEKPDINYQNKNVLHEINICYLGIMNKSLIALGAQTARRFLSSSSKNTIGGGDANRADTGVLDGYHINPLEESDMTDRSRISMLSTEMLEAKQIGVRGLSCYGFRLLDGTFLYGPIALFPKTALSWRVPTPEDITPRSLALFAALEPKIDILVLGVGDKKNIDKVRASVAPFLREHKIGLEIMDTEDAIATFNFLNAEGRYVGAALYPPDDMVVTDKEYGRALALLKGWDTVEENPLLTGLSDTINGAEDLVKRLWSGDEKSWQSARQKVLESPSEREERMQQEMNDKEKKRIE	not soluble
MSALFEPYTLKDVTLRNRIAIPPMSQYMAEDGMINDWHHVHLAGLARGGAGLLVVEATAVAPEGRITPGCAGIWSDAHAQAFVPVVQAIKAAGSVPGIQIAHAGRKASANRPWEGDDHIAADDTRGWETIAPSAIAFGAHLPKVPREMTLDDIARVKQDFVDAARRARDAGFEWIELHFAHGYLGQSFFSEHSNKRTDAYGGSFDNRSRFLLETLAAVREVWPENLPLTARFGVLEYDGRDEQTLEESIELARRFKAGGLDLLSVSVGFTIPDTNIPWGPAFMGPIAERVRREAKLPVTSAWGFGTPQLAEAALQANQLDLVSVGRAHLADPHWAYFAAKELGVEKASWTLPAPYAHWLERYR	soluble
MGSDKIHHHHHHMVRPQRNKKRFILILNGVWNLEVTSKDRPIAVPGSWNEQYQDLCYEEGPFTYKTTFYVPKELSQKHIRLYFAAVNTDCEVFLNGEKVGENHIEYLPFEVDVTGKVKSGENELRVVVENRLKVGGFPSKVPDSGTHTVGFFGSFPPANFDFFPYGGIIRPVLIEFTDHARILDIWVDTSESEPEKKLGKVKVKIEVSEEAVGQEMTIKLGEEEKKIRTSNRFVEGEFILENARFWSLEDPYLYPLKVELEKDEYTLDIGIRTISWDEKRLYLNGKPVFLKGFGKHEEFPVLGQGTFYPLMIKDFNLLKWINANSFRTSHYPYSEEWLDLADRLGILVIDEAPHVGITRYHYNPETQKIAEDNIRRMIDRHKNHPSVIMWSVANEPESNHPDAEGFFKALYETANEMDRTRPVVMVSMMDAPDERTRDVALKYFDIVCVNRYYGWYIYQGRIEEGLQALEKDIEELYARHRKPIFVTEFGADAIAGIHYDPPQMFSEEYQAELVEKTIRLLLKKDYIIGTHVWAFADFKTPQNVRRPILNHKGVFTRDRQPKLVAHVLRRLWSEV	not soluble
GTQSTHESLKPQRVQFQSRNFHNILQWQPGRALTGNSSVYFVQYKIYGQRQWKNKEDCWGTQELSCDLTSETSDIQEPYYGRVRAASAGSYSEWSMTPRFTPWWETKIDPPVMNITQVNGSLLVILHAPNLPYRYQKEKNVSIEDYYELLYRVFIINNSLEKEQKVYEGAHRAVEIEALTPHSSYCVVAEIYQPMLDRRSQRSEERCVEIP	soluble
MDLRSALEKTNIIKSYKLHFLIRYTTSRFEVKEPFLAYLHMARQKDKLLPKCITPPNKKADPFTNDVSSYFTHTHTHTPCSPSLVYTYVNTTEKSPSKSPKHKNILPFNFTK	not soluble
MAEATVLIPAFNEEATVGRVVRVAREAGFPVVVADDGSKDETARRALEAGAEVVRLKENRGKGGAIAEGLKAVRTPFVLLLDADLLGLRPEHLFALLKPLKEGEARMAVGVFRGGRASTDLAMRLTPFLSGQRALRLEDLRSVPGLERARYDLELLLTRHAKRAGWPVVYVPMEGVSQVMKEEKRGVLAGLGHRLRMYWEILRYRLRAR	soluble
STMLRVRSRDGLERVSVDGPHITVSQLKTLIQDQLQIPIHNQTLSTNRNLLLAKSPSDFLAFTDMADPNLRISSLNLAHGSMVYLAYEGERTIRGGPAVTPAGSFGRKMTVEDLIARQMRVGRQEKAHCDSVSFDRDCANAFQHFVNESLAFAVKRGGFMYGNVSEDGQVEVNFIYEPPQQGMEDNLILMRDSEEEKRVDAIALGLGMRRVGFIFNQTVTQDKKEYTLSNVEVLLAAQLHAESELKEWVTAVVKLEINEDGGADVHFEPFQMSDMCVRLFKEGWFETEIGPEDDPKLSKLKKEVVVGVKDVKEVDNDFFLVLVKILDHQGPLSCTFPIENRNTQTTMRALKTHMERARSLPFVKRISDFHLLLFVAQFLDVSSDVPALAECVRLQSHVPEGYELLIDSMANTS	soluble
MNIQITFTDSVRQGTSAKGNPYTFQEGFLHLEDKPHPLQCQFFVESVIPAGSYQVPYRINVNNGRPELAFDFKAMKRA	soluble
SNAMKMSELEKMLKGEHFDGASAEIEALRSQAGRLKLEINQSLDEAERYALQRELFGHLGHKSCVQPPFHCEFGKTIRIGDHTFINMNVVMLDGAPITIGDHVLIGPSTQFYTASHSLDYRRRQAWETICKPIVIEDDVWIGGNVVINQGVTIGARSVVAANSVVNQDVPPDTLVGGTPARILRSLKDPAESMAE	soluble
DPSVTHVLHQLCDILANNYAFSERIPTLLQHLPNLDYSTVISEEDIAAKLNYELQSLTEDPRLVLKSKTDTLVMPGDSIQAENIPEDEAMLQALVNTVFKVSILPGNIGYLRFDQFADVSVIAKLAPFIVNTVWEPITITENLIIDLRYNVGGSSTAVPLLLSYFLDPETKIHLFTLHNRQQNSTDEVYSHPKVLGKPYGSKKGVYVLTSHQTATAAEEFAYLMQSLSRATIIGEITSGNLMHSKVFPFGDTQLSVTVPIINFIDSNGDYWLGGGVVPDAIVLADEALDKAKEIIAFHPPLA	soluble
MNLDKPLLPGQVIGIIGGGHLAKMMALSAREMGFRVGVLDPQIDCPAAQVADWQLLGAYNDPEALEKLAKRAQVITYEFEHADVDALTAIQHLANIPQGTDILAITQDRLMEKSFLEDNNIVIAPYATIVSPTDIQEAIDGIGYPCILKNTRGEGRYVLHSTSDLAPSMNLLREGTCVLEAWIPYEKELSVLISGNGRGEFATFPVVETIKKERKLHETIAPARIDDEVSGELQRIAKVIAKAVGLVGTLSIEMFYTETGGIYVNKILPRPEDAGNFSIDACSFSQYDTHIRGLCNWPMPTIQLLSEAVTVNVLGNEAYETMDIINEHPDWHFHYYGHSEAKAQRAMGHITILTKEIDETLEEIKETKIWS	not soluble
MADAEVIILPKKHKKKKERKSLPEEDVAEIQHAEEFLIKPESKVAKLDTSQWPLLLKNFDKLNVRTTHYTPLACGSNPLKREIGDYIRTGFINLDKPSNPSSHEVVAWIRRILRVEKTGHSGTLDPKVTGCLIVCIERATRLVKSQQSAGKEYVGIVRLHNAIEGGTQLSRALETLTGALFQRPPLIAAVKRQLRVRTIYESKMIEYDPERRLGIFWVSCEAGTYIRTLCVHLGLLLGVGGQMQELRRVRSGVMSEKDHMVTMHDVLDAQWLYDNHKDESYLRRVVYPLEKLLTSHKRLVMKDSAVNAICYGAKIMLPGVLRYEDGIEVNQEIVVITTKGEAICMAIALMTTAVISTCDHGIVAKIKRVIMERDTYPRKWGLGPKASQKKLMIKQGLLDKHGKPTDSTPATWKQEYVDYSESAKKEVVAEVVKAPQVVAEAAKTAKRKRESESESDETPPAAPQLIKKEKKKSKKDKKAKAGLESGAEPGDGDSDTTKKKKKKKKAKEVELVSE	soluble
MNLDLTAQKVRLSWKDILWGYGNKYLGWADVAAYARKMTLSDHDERVFKLSLINKSNILELKPVLEDLASEMRDYSPKNWLYVLLSDVFHRKEEFEDPLGEVEKIYADFDYPEEIESFVRYMPPKDGYIPSAHTYEENIARLYSHWEHYLNNGGGQG	not soluble
MGLYDKYARLAGERLQFSDNGLTPFGTCIDEVYSATEGRIGNKKVILAGTNNYLGLTFNHDAISEGQAALAAQGTGTTGSRMANGSYAPHLALEKEIAEFFNRPTAIVFQPVIPLI	not soluble
MGGLVSRCEAFSSSAEQKLSQGRNTSMDEKTTQTKPSRRPWFWKRIERTELPNPGSYEDINQEASAVLRPNLFDGFRFDFNYPLSAMFSMGHSIEMGSLQKPPGYAFSANYLSNHLVMLSRVDLSGHVNGRVFINHSPFLTSKIVAETSSQPNESKATWDLDYRGSDFCGQLKFGNMGIVALSYLQSVTPNLSLGGEGFYQGATGFSAITAAGRYVTHDGVATCTIASFGPLVASYCHRVNPRVTLATEFFWDLRSRDSLVTIGYKFDLRQATVTGQIDTNGRVAALLEEKINPGLSFLLSGEIDHSRQEYKFGFGVTIGQ	soluble
